Values quoted from earlier work, collected in paper PMC4310935.

Molecular target: GLP-1 receptor (Mus musculus) (UniProt O35659)
Chain of UniProt O35659 (O35659 22-463): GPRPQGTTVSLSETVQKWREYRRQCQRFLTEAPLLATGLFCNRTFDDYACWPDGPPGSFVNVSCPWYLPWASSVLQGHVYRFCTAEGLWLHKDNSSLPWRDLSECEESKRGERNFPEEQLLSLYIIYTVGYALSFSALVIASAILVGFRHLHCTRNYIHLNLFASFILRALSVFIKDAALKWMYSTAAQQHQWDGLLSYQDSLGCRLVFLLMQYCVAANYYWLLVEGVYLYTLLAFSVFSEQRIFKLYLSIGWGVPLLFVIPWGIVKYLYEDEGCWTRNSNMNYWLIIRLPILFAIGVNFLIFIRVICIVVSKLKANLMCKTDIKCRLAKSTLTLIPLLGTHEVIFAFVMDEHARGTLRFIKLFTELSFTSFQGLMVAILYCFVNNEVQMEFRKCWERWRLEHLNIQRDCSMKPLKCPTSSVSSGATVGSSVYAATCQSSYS

Chain of GLP-1 (P55095 98-127): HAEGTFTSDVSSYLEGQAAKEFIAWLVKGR

GLP-1 (from UniProt P55095)
Kd: 0.5 nM
